This passage reports inhibition of CPE formation caused by MERS-CoV infection in Calu-3 cells results from patent EP3541419B1.

The target in this experiment is human dipeptidyl peptidase 4 (DPP4) expressed by cells (human) (UniProt P27487). The experiment is described as follows: cell-based or functional assay.
Chain of UniProt P27487 (P27487 whole entry): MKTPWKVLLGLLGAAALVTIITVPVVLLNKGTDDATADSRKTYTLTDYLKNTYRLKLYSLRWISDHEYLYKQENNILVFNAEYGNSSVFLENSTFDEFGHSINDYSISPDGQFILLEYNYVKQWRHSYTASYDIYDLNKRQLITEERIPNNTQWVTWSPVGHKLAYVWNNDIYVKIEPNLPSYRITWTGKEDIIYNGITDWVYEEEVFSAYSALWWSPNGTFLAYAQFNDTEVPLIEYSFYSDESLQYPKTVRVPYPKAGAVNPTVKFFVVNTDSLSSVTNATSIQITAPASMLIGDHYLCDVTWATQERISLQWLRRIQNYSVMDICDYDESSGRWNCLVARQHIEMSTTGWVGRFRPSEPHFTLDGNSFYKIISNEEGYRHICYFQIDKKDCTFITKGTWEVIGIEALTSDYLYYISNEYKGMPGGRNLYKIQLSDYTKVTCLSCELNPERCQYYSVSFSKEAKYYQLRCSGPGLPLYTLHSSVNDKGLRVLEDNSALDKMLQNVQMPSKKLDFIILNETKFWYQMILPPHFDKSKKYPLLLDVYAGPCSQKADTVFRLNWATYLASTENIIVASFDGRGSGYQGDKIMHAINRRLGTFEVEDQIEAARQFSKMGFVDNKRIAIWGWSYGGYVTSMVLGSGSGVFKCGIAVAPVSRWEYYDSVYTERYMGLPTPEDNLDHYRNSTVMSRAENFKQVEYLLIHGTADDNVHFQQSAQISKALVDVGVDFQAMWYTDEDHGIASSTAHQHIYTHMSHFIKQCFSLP

Turning to “S377-588-Fc (residues 377-588 of MERS-CoV S protein fused to Fc of human IgG) (Fc fusion)”, the inhibition of CPE formation caused by MERS-CoV infection in Calu-3 cells is 3 µg/mL.
